Data reported in publication PMC2629652 (FEBS letters, 2008).
Like-named read-outs stand apart in the source and are kept apart here.

B1: C. acetobutylicum flavo-diiron protein FprA1 (enzyme, UniProt Q97K92 1-392, looked up)
chain: MSAEKLCENVYWVGVKDQKLRVFDIIMNTKKGSTYNSYLINDDKVAIIDTVKDGFYDEFLKSIKSVIGDKKVDYIVVQHTELDHSGSMYRLIKEYPEAKVVSSKAANMYLKEIVNDEFNSLDAMEVKELNLGKNTLEFISAPNLHWPDTMFTYNKENNILFTCDVMGCHYCPDGSIKDEGGEDYLPEMRYYFDVIMSPFKKFVNMGLDKIKDLKLDMIAPSHGPVHINDIEESVKLYREWAKEKEPKEKNVQIFYITAYGNTGIMAKHLCEDINKKGVKAEVHEITDMKMEDIVELIADANGVLVGSPTINQDAVRPVWDVLSSVCPIVNRGKAAAAFGSYGWSGEGVPMMMDRLKSLKFKTPDNGLKFKFVPASKEFSEADKFVDDFIGLL
B2: C. acetobutylicum flavo-diiron protein FprA2 (enzyme, UniProt Q97GC0 1-400, looked up)
chain: MPAIKIKDNIFSVGVLNPSLRIFDIIMKTEYGTSYNAYLIKGKKNVLIDTVHGRFFDEYLENIKSVIDPSSIDYVIMNHCEPDHSGSLARLYEVAPQIKVIASNAGKIYLKNITNKETLDVKAVKTNDTLDIGNGKVLKFAIAPFLHWPDSMFTILEEDKIAFTCDFLGCHFCEPRMFDTKITYMPKYEKSFKEYYDAIFSPFKPYVVKGLDILDALDLDFIATSHGPILTREGLLAASKQKYRDLSSEIQSTTKYIPIFYCSAYGNTEILANEIASGIKSVLNDANIEMLDIINYDYSDLKEKINICDAFMLGTPTINKDALFPIWELIGGIDAVNCKNKPASAFGSFGWSGEAIPFVISRLKELKLKVFQDGFTCLFVPSEDDIKKAFKFGEDFAKSI

Columns and labels:
FprA1 = molecular target: T1, FprA1 (Clostridium acetobutylicum, UniProt Q97K92); assay: TLC of the flavin cofactor; format: binding; details: co-purified oxidized flavin, 378 and 450 nm bands
T1 sequence (Q97K92 2-392): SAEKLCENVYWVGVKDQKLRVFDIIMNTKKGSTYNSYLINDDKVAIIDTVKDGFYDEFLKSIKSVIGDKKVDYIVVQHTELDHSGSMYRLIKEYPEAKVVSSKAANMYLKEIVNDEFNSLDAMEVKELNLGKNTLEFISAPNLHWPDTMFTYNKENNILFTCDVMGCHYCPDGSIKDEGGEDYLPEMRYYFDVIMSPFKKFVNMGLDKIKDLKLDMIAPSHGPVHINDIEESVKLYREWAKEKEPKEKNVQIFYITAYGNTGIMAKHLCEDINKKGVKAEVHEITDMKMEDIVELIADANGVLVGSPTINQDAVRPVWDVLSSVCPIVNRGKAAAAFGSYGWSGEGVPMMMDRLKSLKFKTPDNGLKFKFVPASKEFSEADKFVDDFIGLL

SEC [1] = molecular target: the molecule itself; assay: SEC
SEC [2] = molecular target: the molecule itself; assay: SEC; remark: listed apart in the source

Molecule	TLC of the flavin cofactor; UV-visible absorption of purified protein (FprA1)	stoichiometry N (SEC [1])	stoichiometry N (SEC [2])
Cc1cc2nc3c(=O)[nH]c(=O)nc-3n(C[C@H](O)[C@H](O)[C@H](O)COP(=O)(O)O)c2cc1C [FMN]	TLC analysis identified FMN as the flavin cofactor in both FprA1 and FprA2	–	–
B1	–	2	–
B2	–	4	2
